Measured values: patent publication US20070185028A1, “Compositions and methods for treatment of protein misfolding and protein aggregation diseases” (priority 2004, published 2007)
Several values for one entry are separate records, joined by “and”; a condition that tells them apart may be missing. Equal entries are not always repeated.

Legend:
Type in all cases: biochemical
Aβ1-42 = biological target: T1, Aβ1-42 (Homo sapiens, UniProt P05067); assay: Aβ1-42 fibril formation ThT fluorescence assay; conditions: for decrease in ThT fluorescence of Aβ1-42: 6 μM inhibitor, 30 μM Aβ1-42, 37° C., 48 hrs; for inhibition of Aβ fibrillation: peptide to substrate concentration of 1:5
T1 construct: Aβ1-42 (American Peptide); purchased American Peptide
Experimental: The effect of five synthesized αB crystallin peptides STSLSPFYLRPPSFLRAP (ST), DRFSVNLDVKHFS (DR), HGKHEERQDE (HG), LTITSSLSSDGV (LT), and ERTIPITRE (ER) on Aβ1-42 fibrillation was measured using the ThT fluorescence assay (FIG. 1). The formation and inhibition of Aβ1-42 fibrils was qualitatively verified by fluorescence and bright-field microscopy. The concentration and stoichometry of the peptides was varied relative to Aβ1-42 to establish a concentration curve. In addition, the effect of two known inhibitors of Aβ1-42 fibrillation (APS and NAP) and a control neuropeptide (AT1) with no fibril inhibition activity was measured and compared to the effect of the αB crystallin peptides on Aβ1-42 fibrillation. The ThT fluorescence of 30 μM Aβ1-42 alone incubated at 37° C. for 48 hrs increased from ˜350,000 to ˜450,000 RFU. […] In contrast, 6 μM DR, LT, and […] had no effect on Aβ1-42 fibril formation. […] Increasing the concentration of the DR peptide to 30 μM decreased the ThT fluorescence by approximately 50%. […] However, when the concentrations of the LT and ER peptides were increased to 150 μM, a 60-100% decrease in ThT fluorescence was measured. […] The negative control peptide AT1 had no effect on Aβ1-42 fibril formation even at a concentration as high as 300 μM.
The Thioflavin T (ThT) fluorescence of Aβ1-42 in the presence of varying concentrations of αB crystallin peptides and controls was measured. […] Addition of 6 μM DR, LT, and ER had no effect on the ThT fluorescence of Aβ1-42. When the concentration of the peptides was increased to 30 μM (1:1::peptide:Aβ1-42), the αB crystallin peptides ST, DR, HG decreased the ThT fluorescence by 50-100%. At the same concentrations, APS and NAP decreased the ThT fluorescence by 30-100%. When the concentration of the peptides was increased further to 150 μM ([…]), four of the five αB crystallin peptides DR, HG, LT, and ER decreased the ThT fluorescence by 58-100%. At the same concentrations, APS and NAP decreased the fluorescence by 28-100%. […] The formation and inhibition of Aβ fibrils was verified microscopically.
Thioflavin T (ThT) Assays. The effect of the five αB crystallin peptides (ST, DR, HG, LT, and ER) on Aβ1-42 fibril formation was measured using the ThT fluorescence assay (44-47) and compared with two known inhibitors of Aβ1-42 fibril formation (Tramiprosate and NAP)(34, 36) and a negative control neuropeptide Angiotensin 1 (AT1). Thioflavin T is a fluorescent dye that has a high affinity for amyloid fibrils and becomes fluorescent (excitation λ=450 nm, emission λ=486 nm) when bound to fibrils. For the Aβ1-42 assays, peptides and APS were dissolved to 2 mM in 0.25% DMSO and diluted accordingly, while Aβ1-42 was dissolved in 20 mM Tris-Cl, pH 7.40, and 100 mM NaCl. For the 5:1::inhibitor:Aβ1-42 assay, 10 μL of 450 μM peptide or APS was mixed with 10 μL of 90 μM Aβ1-42), 7 μL 20 mM Tris-Cl, 100 mM NaCl, pH 7.4 and 3 μL of 1 mM ThT. For the 1:1::inhibitor:Aβ1-42 assay, 10 μL of 90 μM peptide or APS was mixed with 10 μL of 90 μM Aβ(1-42), 7 μL 20 mM Tris-Cl, 100 mM NaCl, pH 7.4 and 3 μL of 1 mM ThT. For the 1:5::inhibitor:Aβ1-42 assay, 10 μL of 18 μM peptide or APS was mixed with 10 μL of 90 μM Aβ(1-42), 7 μL 20 mM Tris-Cl, 100 mM NaCl, pH 7.4 and 3 μL of 1 mM ThT. ThT fluorescence in relative fluorescence units (RFU) was measured using a Perkin Elmer Victor^3 V plate reader. Assays were performed in 384-well fluorescence plates in duplicates or triplicates. Samples were incubated at 37° C. for a total of 48 hours. ThT fluorescence was measured at 0, 24, and 48 hours. The effect of the peptides and APS was calculated as percentage fibril formation relative to Aβ1-42 alone (100%) at the end of 48 hours.

transthyretin (TTR) = biological target: T2, transthyretin (TTR) (Homo sapiens, UniProt P02766); assay: Transthyretin fibrillation ThT assay; conditions: 3.2 μM; 16 μM TTR; 37° C.
T2 construct: purchased Sigma-Aldrich
Experimental: The effect of the five αB crystallin peptides ST, DR, HG, LT, and ER on TTR fibrillation was measured using the ThT fluorescence assay (FIG. 26). The formation and inhibition of TTR fibrils was qualitatively verified by fluorescence and bright-field microscopy. The concentration of the peptides was varied relative to TTR to establish a concentration curve. In addition, the effect of a control neuropeptide (AT1) with no TTR fibril inhibition activity was measured and compared to the effect of the αB crystallin peptides on TTR fibril formation. The ThT fluorescence of 16 μM TTR alone incubated at 37° C. for 4 hrs, increased from ˜15,000 to ˜45,000 RFU. Addition of 3.2 μM αB crystallin peptides, ST, DR, LT, and HG decreased the ThT fluorescence of TTR by 15-70%. In contrast, 3.2 μM ER had no effect on TTR fibril formation. Increasing the concentration of the ER peptide to 16 μM decreased the ThT fluorescence of TTR by 60%. The negative control peptide AT1 had no effect on TTR fibrillation even at a concentration as high as 160 μM. All five αB crystallin peptides inhibited TTR fibrillation at sub-stoichometric and stoichometric concentrations (3.2 μM and 16 μM).
The Thioflavin T (ThT) fluorescence of TTR in the presence of varying concentrations of αB crystallin peptides and controls was measured. […] When the concentration of the peptides was increased to 16 μM (1:1::peptide:TTR), the αB crystallin peptides ST, DR, HG, LT and ER decreased the ThT fluorescence by 8-72%. When the concentration of the peptides was increased further to 80 μM ([…]), all of the five αB crystallin peptides ST, DR, HG, LT, and ER decreased the ThT fluorescence by 40-70%. […] The formation and inhibition of TTR fibrils was verified microscopically.
Transthyretin fibrillation ThT assays were performed as described previously. Hurshman et al., Biochemistry 43:7365-81, 2004; O'Nuallain and Wetzel, Proc Natl Acad Sci USA 99:1485-90, 2002. Peptides were dissolved to 2 mM in 0.25% DMSO and diluted accordingly, while TTR was dissolved in 200 mM KCl, 2 mM EDTA, 5 mM PBS, 200 mM sodium acetate, pH 4.4. For the 5::peptide:TTR assay, 10 μL of 160 μM peptide was mixed with 10 μL of 32 μM TTR, and 1 μL of 1 mM ThT. For the 1:1::peptide:TTR assay, 10 μL of 32 μM peptide was mixed with 10 μL of 32 μM TTR and 1 μL of 1 mM ThT. For the 1:5::peptide:TTR assay, 10 μL of 6.4 μM peptide was mixed with 10 μL of 32 μM TTR and 1 μL of 1 mM ThT. ThT fluorescence was measured using a Perkin Elmer Victor^3 V plate reader. Assays were performed in 384-well fluorescence plates in duplicates or triplicates. Samples were incubated at 37° C. ThT fluorescence was measured continuously for 150 minutes. The effect of the peptides and APS was calculated as percentage fibril formation relative to TTR alone (100%) at the end of 150 minutes.

Aβ = Aβ (Homo sapiens, UniProt P05067); assay: Aβ Thioflavin T fluorescence (fibrillization, 50° C., 72 hours); conditions: Thioflavin T; 1:10 Aβ:peptide; 50° C., 72 hours
Experimental: Aβ Thioflaviin T fluorescence. Aβ fibrils were grown in the presence and absence of αB crystallin and peptides in conditions similar to that previously described for the presence of αB crystallin. Bakthisaran et al., Biochem J, 2005. Peptides were dissolved to 9.1 mM in trifluorethanol (TFE) and diluted to 0.91 mM stock solutions in 50 mM PBS, 100 mM NaCl, pH 7.4. 3.5 mg of Thioflavin T was dissolved in 100 μl of 50 mM Glycine pH 8.5. A stock solution of 1 mg/ml (0.22 mM) Aβ was prepared. 20 μl Aβ, 50 μl chaperone, 2 μl Thioflavin T was mixed with 28 μl 50 mM PBS, 100 mM NaCl, pH 7.4. Fluorescence was read using a Beckman Coultier DTX 880 multimode detector. Samples were heated at 50° C. for 72 hours and fluorescence was read again.
The fibrillization of Aβ was measured as fluorescence of the fluorescent dye Thioflavin T from solutions containing 1:10 monomeric molar ratio of Aβ:peptide. In the absence of Aβ fibrils, Thioflavin T had little or no fluorescence. The fluorescence of the Thioflavin T bound to Aβ fibrils in the absence of any other molecule after 72 hrs was set to 100%. […] Fibril formation=ΔfluorescenceAβ (with chaperone)*100/ΔfluorescenceAβ (without chaperone).

γD crystallin = biological target: T3, γD crystallin (Homo sapiens, UniProt P07320); assay: γD crystallin Thioflavin T fluorescence (fibrillization); conditions: 1:1 γD crystallin:peptide
T3 sequence (P07320 2-174): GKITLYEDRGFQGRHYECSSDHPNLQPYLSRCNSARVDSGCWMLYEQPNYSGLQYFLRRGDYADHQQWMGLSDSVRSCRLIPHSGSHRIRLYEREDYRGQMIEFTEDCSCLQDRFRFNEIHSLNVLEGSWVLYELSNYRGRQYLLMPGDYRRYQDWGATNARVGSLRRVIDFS
Experimental: γD crystallin Thioflaviin T fluorescence. γD crystallin fibrils were formed in a similar way to that of γ crystalline. Meehan et al., J Biol Chem 279: 3413-3419, 2004. Peptides were dissolved to 9.1 mM in TFE and diluted to 0.91 mM stock solutions in 10% TFE, pH 2.0. 3.5 mg of Thioflavin T was dissolved in 100 μl of 50 mM Glycine pH 8.5. A stock solution of 1 mg/ml (0.22 mM) Aβ was prepared. 20 μl Aβ, 5 μl chaperone, 2 μl Thioflavin T was mixed with 73 μl 10% TFE, pH 2.0. Fluorescence was read using a Beckman Coultier DTX 880 multimode detector. Samples were heated at 50° C. for 72 hours and fluorescence was read again.
The fibrillization of γD crystallin was measured as fluorescence of the fluorescent dye Thioflavin T from solutions containing 1:1 monomeric molar ratio of γD crystallin:peptide. In the absence of fibrils Thioflavin T had little or no fluorescence. The fluorescence of the Thioflavin T bound to γD crystallin fibrils in the absence of any other molecule after 72 hrs was set to 100%. […] Fibril formation=ΔfluorescenceγD crystallin (with chaperone)*100/ΔfluorescenceγD crystallin (without chaperone).

Compound | decrease in ThT fluorescence of Aβ1-42 (Aβ1-42) | inhibition of Aβ fibrillation (Aβ1-42) | decrease in ThT fluorescence of TTR (transthyretin (TTR)) | Δfluorescence (Aβ) (Aβ) | effect on the fibrillization of γD crystallin (ranking) (γD crystallin; 72 hrs) | Δfluorescence (γD crystallin) (γD crystallin; Thioflavin T, 50° C., 72 hours)
NCCCS(=O)(=O)O [APS, 3-aminopropanesulfonic acid, reference compound] | ~40% and 38% | ~38% | did not have any effect |  |  | 
NAPVSIPQ [reference compound] | ~40% and 38% | ~38% | did not have any effect |  |  | 
αB crystallin: wild type recombinant human αB crystallin, small heat shock protein and molecular chaperone |  |  |  | 318,471,040 | weakest effect | 1,079,141,056
